Laboratory results taken from publication PMC10365013.

Biological target: avi-tagged SHOC2 (human) (UniProt Q9UQ13)
Assay: SPR

Chain of avi-tagged SHOC2 (human) (Q9UQ13 whole entry): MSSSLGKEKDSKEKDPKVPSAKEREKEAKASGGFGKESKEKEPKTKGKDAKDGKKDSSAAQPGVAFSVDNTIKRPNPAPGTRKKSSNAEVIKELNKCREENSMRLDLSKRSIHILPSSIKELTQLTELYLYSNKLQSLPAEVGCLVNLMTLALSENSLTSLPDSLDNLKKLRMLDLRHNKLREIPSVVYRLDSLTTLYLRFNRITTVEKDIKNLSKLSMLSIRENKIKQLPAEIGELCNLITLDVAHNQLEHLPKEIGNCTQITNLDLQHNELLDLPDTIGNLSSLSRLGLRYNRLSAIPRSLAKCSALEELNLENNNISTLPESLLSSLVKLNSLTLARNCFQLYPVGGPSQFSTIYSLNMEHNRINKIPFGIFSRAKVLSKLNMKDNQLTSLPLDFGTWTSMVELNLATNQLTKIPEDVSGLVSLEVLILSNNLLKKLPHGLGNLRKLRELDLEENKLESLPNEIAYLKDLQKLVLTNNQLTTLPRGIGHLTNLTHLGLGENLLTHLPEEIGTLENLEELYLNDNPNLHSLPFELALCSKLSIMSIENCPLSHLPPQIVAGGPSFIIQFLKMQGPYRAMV

Q: For “KRAS (1–169) (from UniProt P01116 1-169) (domain or fragment)”, which apparent KD of ternary complex formation with m3 is on record?
A: 700 nM
